The source of these data is the supplement of paper PMC12042874.

± gives the uncertainty stated by the source.

A short description of the data set: amyloid nucleation score (Sup35N fusion, yeast selection) (log enrichment); library NNK1; higher = more nucleation; inactive = no reads after selection. Put shortly:
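Yeast lacking psi expressed peptides of 20 random codons fused to Sup35N, received 100 μM copper sulfate for 24 hours, and were then grown for 7 days at 30°C on medium lacking adenine and uracil. Illumina sequencing of input and output plasmid inserts provided the reads. Nucleation scores are DiMSum log enrichments of output over input, centred on the mode of non-aggregating sequences. Any sequence with under 100 input reads was excluded.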
As to FDKGVSIRPSAWRDPRVWPS, the amyloid nucleation score came out at 0.417 ± 0.47.

With FDRHPGTYCDVKLLCREHSA, the amyloid nucleation score entry is “inactive”.

Consider FDSRRGEGALMSNDSSCERG, for which the amyloid nucleation score was -0.185 ± 0.69.

FDVMKFYIYLGYSVVPVM yielded an amyloid nucleation score of -1.09 ± 0.43.

Substance FDYLCSGGMSTILSCITFPL showed an amyloid nucleation score of -0.37 ± 0.9.

For FEAFFNGHSSREYLVISVRL, the amyloid nucleation score came to 0.153 ± 1.2.

FEFIVMEIAC: the amyloid nucleation score was -0.189 ± 0.35.

In the case of FEIMQPNAHISCHYCYLVNM, the amyloid nucleation score was found to be 5.01 ± 0.059.

Consider FEQCPIFRRGRLLRSNAVCA, for which the amyloid nucleation score was -0.145 ± 0.33.

Turning to FEYNRYRLLYTTYLGPVGGI, the amyloid nucleation score was -1.56 ± 0.64.

As to FEYVIPRVTKIVRSTDRRGS, the amyloid nucleation score is -0.548 ± 1.7.

FFCEIVMYGWSIM had an amyloid nucleation score of 2.97 ± 0.14.

Take FFHNTSHASYIK: the amyloid nucleation score is 1.09 ± 0.13.

For FFIETVYATKNYKHW, the amyloid nucleation score is 2.76 ± 0.11.

In turn, FFIGFIL returned an amyloid nucleation score of 1.59 ± 0.21.

As to FFLILRVRLYCTSICQAYAN, the amyloid nucleation score was found to be 0.451 ± 0.48.

Take FFNCFLLDNNYVSLYLWSKD: the amyloid nucleation score was found to be 6.832 ± 0.068.

Substance FFWEY showed an amyloid nucleation score of -0.312 ± 1.5.

Substance FGAVVADGMKLFSVSFS registered an amyloid nucleation score of -0.711 ± 0.52.

FGFFWV came in with an amyloid nucleation score of 0.099 ± 0.7.

FGFMKKRRDLSY registered an amyloid nucleation score of 2.96 ± 0.091.

FGFSKWSSMLIRHQPYDLFI had an amyloid nucleation score of -1.1 ± 1.

In turn, FGHKKPVGLTGLNGFSGTGV had an amyloid nucleation score of 1.91 ± 0.63.

FGINVVRGKCRVRSLKDIDS registered an amyloid nucleation score of -0.086 ± 0.48.

Substance FGLADITWKLPPQGSTWRLT returned an amyloid nucleation score of -0.108 ± 0.95.

The substance FGLIATTETRAVSKMNVFDN registered an amyloid nucleation score of 1.56 ± 0.49.

Regarding FGLIGTPCERMVSGLEV, the amyloid nucleation score was -0.806 ± 0.88.

Take FGLIVQTIMFRWHQKGSNFE: the amyloid nucleation score is -1.05 ± 2.7.

On to FGLQWSSKAACVLTCKQSLR, for which the amyloid nucleation score result was “inactive”.

In turn, FGLVAGRR showed an amyloid nucleation score of -0.188 ± 1.2.

FGLYFRKISGLSPN had an amyloid nucleation score of -0.211 ± 0.67.

For FGPCMRFDCCNRGST, the amyloid nucleation score is 4.72 ± 0.082.

In turn, FGYSAGHERMVHCVGLRSSG yielded an amyloid nucleation score of 1.37 ± 0.69.

The substance FGYYFVNGIFLYSSVRYDNM gave an amyloid nucleation score of 3.63 ± 0.076.

As for FHASATRTFIVFCIC, the amyloid nucleation score came out at 0.556 ± 0.38.

For the substance FHFKFSSLLIVSFVLGFCLV, the amyloid nucleation score came to 0.027 ± 1.7.

The substance FHHCFIQTSSDAVSSGLDFE had an amyloid nucleation score of 0.644 ± 0.78.

Substance FHHTKSGS registered an amyloid nucleation score of 1.67 ± 0.57.

For the substance FHIRWE, the amyloid nucleation score entry was “inactive”.

FHVSDV returned an amyloid nucleation score of -0.125 ± 0.98.

As for FIFSAVGRNN, the amyloid nucleation score was -0.411 ± 0.57.

Substance FIHAMAMCILGEHSI registered an amyloid nucleation score of 0.686 ± 0.47.

For the substance FIHSRE, the amyloid nucleation score is 0.366 ± 0.31.

Substance FIHVVAFWRLSRDSY registered an amyloid nucleation score of 0.467 ± 0.55.

FIIITYFGLGKTVYARRKCC came in with an amyloid nucleation score of -1.92 ± 2.7.

The substance FILSEFSNRF displayed an amyloid nucleation score of 0.104 ± 0.34.

As to FINVAFGCVYVRTNCLRMEG, the amyloid nucleation score was 7.116 ± 0.059.

Regarding FIQNGV, the amyloid nucleation score came out at 0.659 ± 0.79.

The substance FIQNKVLVFQSNSTNDLLFP returned an amyloid nucleation score of 6.071 ± 0.058.

Regarding FIVHANWQSFYFLLRLMVF, the amyloid nucleation score was -0.109 ± 1.

For FIVLAYCLSFWVAIYPEVHM, the amyloid nucleation score stood at 0.581 ± 0.73.

In the case of FIYLENAS, the amyloid nucleation score is 0.532 ± 0.38.

Regarding FKIFD, the amyloid nucleation score was determined as 1.15 ± 0.81.

Consider FKKNKQSSVKFGSNKSLQIG, for which the amyloid nucleation score is 0.027 ± 0.51.

For FKMSWSTPARYNNGLTRLIF, the amyloid nucleation score is -0.379 ± 0.63.

In the case of FKRLNRFYRSLAIMTSTSHL, the amyloid nucleation score was -0.149 ± 0.69.

FKSYPVGIRRHCHGTSMLMG had an amyloid nucleation score of 0.059 ± 0.31.

On to FKTRSRNRLVCCYEESRTDL, for which the amyloid nucleation score turned out to be 0.536 ± 0.34.

As for FKVTFNRDVPNESSTALCSV, the amyloid nucleation score is -1.01 ± 1.7.

Substance FKYSFMIYNLARSVCYCTVS had an amyloid nucleation score of -0.002 ± 1.4.

Turning to FKYSGRCWGANECIKNYNYV, the amyloid nucleation score was 0.07 ± 0.39.

For FLCVF, the amyloid nucleation score amounted to 0.097 ± 0.88.

As to FLFLPVSVSYYEDDSGHVLC, the amyloid nucleation score result is “inactive”.

Consider FLGLLVPFFNWRDKKRKYSG, for which the amyloid nucleation score was 0.012 ± 0.79.

Take FLGPIAIVGRHLMICIMQSH: the amyloid nucleation score worked out at 0.855 ± 0.43.

Regarding FLKLPFTKSSWSF, the amyloid nucleation score was -0.317 ± 1.4.

FLKSYLLRC had an amyloid nucleation score of 0.012 ± 0.63.

Regarding FLLAPTLL, the amyloid nucleation score was -0.367 ± 1.

FLLDMV returned an amyloid nucleation score of -0.175 ± 0.45.

In turn, FLLLAC showed an amyloid nucleation score of 0.197 ± 0.9.

For FLLLTSMNPLEWTYGRFWGV, the amyloid nucleation score was -0.597 ± 0.72.

Substance FLLNSPQNASYSPHRRLAFD came in with an amyloid nucleation score of -1.38 ± 0.92.

On to FLNFPYMLRDCLMIRFIELE, for which the amyloid nucleation score result was “inactive”.

For the substance FLPMSLGWVHKQLIFSPRWY, the amyloid nucleation score worked out at 1 ± 0.66.

Consider FLPWVLFFSQ, for which the amyloid nucleation score was determined as 0.816 ± 0.62.

Take FLRCRFLYQQ: the amyloid nucleation score was found to be 0.4 ± 0.39.

Substance FLRHLSSCCHLATLCVDWGA gave an amyloid nucleation score of -0.103 ± 1.4.

On to FLRNNKIPVVFFSPS, for which the amyloid nucleation score result is “inactive”.

In the case of FLSRCGWAYVMV, the amyloid nucleation score was -0.493 ± 0.26.

Substance FLSSCDGGLIGMHGTGFTAQ gave an amyloid nucleation score of 0.426 ± 0.45.

Turning to FLSYYTCILFPGDMHGSYLS, the amyloid nucleation score came out at 7.226 ± 0.055.

Consider FLTFKMN, for which the amyloid nucleation score entry is “inactive”.

FLTTLGWSYHRQNQLRMPRF yielded an amyloid nucleation score of 2.24 ± 0.16.

FLVHSTGGHVNISFTSVIYL yielded an amyloid nucleation score of 7.889 ± 0.048.

FLYPVHLVLHCSTSYMQTDS came in with an amyloid nucleation score of 0.241 ± 1.2.

FLYRSYVNIGLGGANISNLV gave an amyloid nucleation score of 4.3 ± 0.12.

With FMAGNFSFFLRRNA, the amyloid nucleation score entry was “inactive”.

With FMDMDRLMSRGLQVNKGVML, the amyloid nucleation score is -0.228 ± 0.68.

The substance FMDWIVSCGKCKIGSYYLCI had an amyloid nucleation score of -0.388 ± 0.29.

FMLWCQFKRDNIKRTDRLAV returned an amyloid nucleation score of 1.46 ± 0.78.

In turn, FMSEDESYVCYRWGWYDRIF displayed an amyloid nucleation score of -0.919 ± 1.

FMSYFVPSQQYLTASSRQKT showed an amyloid nucleation score of -0.544 ± 1.1.

Take FMVLDQFIE: the amyloid nucleation score amounted to 0.383 ± 0.95.

FMYSKPVI: the amyloid nucleation score is -0.314 ± 0.78.

The substance FNDGYSVAEA showed an amyloid nucleation score of 0.998 ± 0.48.

FNFCHE registered an amyloid nucleation score of -0.392 ± 0.6.

The substance FNFRSS yielded an amyloid nucleation score of -0.618 ± 0.72.

Turning to FNIAALSEYCGPLKSNAHW, the amyloid nucleation score is -0.27 ± 0.64.

For the substance FNIYSQMYIW, the amyloid nucleation score was 5.32 ± 0.066.

As for FNKYYMFEST, the amyloid nucleation score is -0.038 ± 0.33.

FNLALDRGR returned an amyloid nucleation score of -0.062 ± 0.32.

In the case of FNLATIPISQFITPNSPLLR, the amyloid nucleation score was -0.091 ± 1.1.

The substance FNLGSGDWL had an amyloid nucleation score of -0.842 ± 0.65.

For FNSFCFQNVTLW, the amyloid nucleation score entry is “inactive”.

FNVHNWAQRTVEHGETLFRD gave an amyloid nucleation score of 1.57 ± 0.45.

As for FNYFVLFSLSFSTVFSFNDT, the amyloid nucleation score was 3.37 ± 0.081.

FNYFYVLYS showed an amyloid nucleation score of 5.35 ± 0.074.

Substance FNYYSA yielded an amyloid nucleation score of -0.012 ± 0.48.

The substance FPDLYVWRCWKSQGHSWHGV yielded an amyloid nucleation score of 0.573 ± 0.52.

With FPGSRDPGVNRSWSYNSIDT, the amyloid nucleation score was 1.87 ± 0.14.

In turn, FQAQWNLSTCPNAFCLFLIR registered an amyloid nucleation score of 5.82 ± 0.059.

Consider FQDLSLAVSQCLPCVIIGDC, for which the amyloid nucleation score is -0.131 ± 0.44.

As for FQGTIR, the amyloid nucleation score was found to be 0.193 ± 1.

As to FQSSNSSYITIHYCLVGRFT, the amyloid nucleation score worked out at 6.013 ± 0.048.

Turning to FQYEWNLVIW, the amyloid nucleation score was -0.074 ± 0.4.

Substance FRCGKGVVMSYELVNSIVGS showed an amyloid nucleation score of 0.407 ± 0.76.

FRDCLLVRYLCNVLTGDCTH gave an amyloid nucleation score of 1.94 ± 0.52.

In turn, FRGTVFSW had an amyloid nucleation score of -0.26 ± 0.69.

FRIRRGKRSVHTVNFAFAEV registered an amyloid nucleation score of 0.583 ± 0.8.

For FRLLRSK, the amyloid nucleation score came to 0.644 ± 0.56.

For the substance FRMRHQERMAGTPVGMGLYC, the amyloid nucleation score was -0.327 ± 0.69.

Substance FRRHYNKMNFFVGFRERMCG yielded an amyloid nucleation score of -0.262 ± 0.49.

Turning to FRRLHRYRWDNECLGMQVGS, the amyloid nucleation score was -1.48 ± 2.1.

Substance FRRLMLWSCSV showed an amyloid nucleation score of -0.098 ± 1.3.

FRSVVWRLHTFY showed an amyloid nucleation score of -0.075 ± 0.5.

For the substance FRTRGFLHSKVLVRLQYWIK, the amyloid nucleation score stood at 0.494 ± 0.5.

In the case of FRVQVTYIFRSLEICDPTVG, the amyloid nucleation score entry is “inactive”.

FRYGYLFKLSNVWIDDMLRR registered an amyloid nucleation score of 1.96 ± 0.55.

Take FRYYRF: the amyloid nucleation score was determined as 0.522 ± 0.45.

For the substance FSACLSNIYD, the amyloid nucleation score entry was “inactive”.

The substance FSCSTCNVCNERHPEVFTYD had an amyloid nucleation score of 1.15 ± 0.51.

Substance FSIKHPLSSGSKISCVA returned an amyloid nucleation score of -1.23 ± 1.7.

On to FSKVGCDKVIRPGKVPFRSF, for which the amyloid nucleation score was 0.491 ± 0.9.

Turning to FSLRDISNISIWAYLNQPCR, the amyloid nucleation score was -0.341 ± 0.32.

The substance FSMVAESRIEGILRFS returned an amyloid nucleation score of 0.409 ± 0.22.

FSNAIKQVFQGYLWTNPW came in with an amyloid nucleation score of -0.188 ± 0.3.

Substance FSQYVGDFYILMRVSFEFMK showed an amyloid nucleation score of 0.033 ± 0.44.

FSRFLYEYGCGELVATFLPW showed an amyloid nucleation score of 0.517 ± 0.24.

FSRSWGDCIGERCGVV: the amyloid nucleation score came out at 0.307 ± 0.38.

With FSSYPLGFRNRRDTVDMTIV, the amyloid nucleation score stood at 0.018 ± 0.38.

As to FSTGNPWVD, the amyloid nucleation score was -0.342 ± 0.8.

Turning to FSVKFVSNPFSQLLSARPWW, the amyloid nucleation score is -0.603 ± 0.34.
